According to PMC12375889 (Febs Letters, 2025):

Legend:
SEC = target: the molecule itself; experiment: SEC
native MS = target: the molecule itself; experiment: native MS

B1: MvoDUF2193 (natural protein, Methanococcus voltae strain A3, UniProt D7DSA4 1-499, looked up)
chain: MKELYEKMINEAMAAQWADVEVIKAKRGTKYKLTDGKPYVDAVQKMEAIGDQCSEVFDLHKNSVKIHYDTLCDLTDTVRPEDDPFVEHYQTPAILEILYNEDPKFREAVEKFIDSVEKNSALIGKEVVRRYGGFYGPTCVVDFALIPGSTSNIVNQILRKTDISEHYKQAILASKSWGMNTSYGIGDKFAHAVEDGKTLEEAIDEEIKTIKMIYDTPIQAQAKLMEEAGHTSFDVLKYMQDYKKKMESTVKKAIDADVNYANIVTVPAYCVGDISHHIAQSTYNMCKDDVIMAIIEATSKVMDNTLRNNIDKYKSEFDVLSLATGSTAAAVEYILELDGFNAPTVVQLLTRRFHNYVQLYPKRGAAAELHNCDFMDMIYRGWKTLDKARRMKNGSGTKLMPMVNDMPVDLDPIAENEVIMNPQRYAYPACAITVRFSSLMRLSDYPCLLTSEPVTATMMTNAIALHKNNPGAPARVCKKCASSCLVDFRHEYCQWRESV
Q: For B1, which “stoichiometry N” value (SEC) is on record?
A: 4

Q: What about the “stoichiometry N” value (native MS) of the same protein?
A: 2
